Measured values reported in US20180355060A1 (published 2018).

Assays:
[1] = target: T1, rat TG2 (rat, UniProt Q9WVJ6 1-686); experiment: cell-based or functional assay
T1 sequence: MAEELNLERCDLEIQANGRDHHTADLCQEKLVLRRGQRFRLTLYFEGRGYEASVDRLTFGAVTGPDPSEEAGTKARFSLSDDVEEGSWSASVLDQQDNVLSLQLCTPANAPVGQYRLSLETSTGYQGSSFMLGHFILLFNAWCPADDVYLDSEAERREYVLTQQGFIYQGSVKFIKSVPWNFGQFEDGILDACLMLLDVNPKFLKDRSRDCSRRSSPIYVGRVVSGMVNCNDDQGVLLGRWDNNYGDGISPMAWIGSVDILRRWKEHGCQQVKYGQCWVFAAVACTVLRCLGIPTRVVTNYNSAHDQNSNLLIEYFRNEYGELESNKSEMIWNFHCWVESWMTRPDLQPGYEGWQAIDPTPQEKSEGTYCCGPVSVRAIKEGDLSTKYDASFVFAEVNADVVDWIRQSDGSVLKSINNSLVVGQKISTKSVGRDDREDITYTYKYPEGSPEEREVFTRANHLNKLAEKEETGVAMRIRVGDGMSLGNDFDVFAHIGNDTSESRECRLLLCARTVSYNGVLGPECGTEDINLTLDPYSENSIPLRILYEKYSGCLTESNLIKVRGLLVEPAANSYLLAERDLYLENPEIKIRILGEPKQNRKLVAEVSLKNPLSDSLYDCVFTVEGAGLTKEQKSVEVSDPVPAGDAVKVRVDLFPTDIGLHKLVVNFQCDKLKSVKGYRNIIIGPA

[2] = target: T1, rat TG2; experiment: western blot and ELISA
[3] = target: T2, human transglutaminase type 2 (TG2) (human, UniProt P21980 1-687); experiment: cell-based or functional assay
T2 sequence: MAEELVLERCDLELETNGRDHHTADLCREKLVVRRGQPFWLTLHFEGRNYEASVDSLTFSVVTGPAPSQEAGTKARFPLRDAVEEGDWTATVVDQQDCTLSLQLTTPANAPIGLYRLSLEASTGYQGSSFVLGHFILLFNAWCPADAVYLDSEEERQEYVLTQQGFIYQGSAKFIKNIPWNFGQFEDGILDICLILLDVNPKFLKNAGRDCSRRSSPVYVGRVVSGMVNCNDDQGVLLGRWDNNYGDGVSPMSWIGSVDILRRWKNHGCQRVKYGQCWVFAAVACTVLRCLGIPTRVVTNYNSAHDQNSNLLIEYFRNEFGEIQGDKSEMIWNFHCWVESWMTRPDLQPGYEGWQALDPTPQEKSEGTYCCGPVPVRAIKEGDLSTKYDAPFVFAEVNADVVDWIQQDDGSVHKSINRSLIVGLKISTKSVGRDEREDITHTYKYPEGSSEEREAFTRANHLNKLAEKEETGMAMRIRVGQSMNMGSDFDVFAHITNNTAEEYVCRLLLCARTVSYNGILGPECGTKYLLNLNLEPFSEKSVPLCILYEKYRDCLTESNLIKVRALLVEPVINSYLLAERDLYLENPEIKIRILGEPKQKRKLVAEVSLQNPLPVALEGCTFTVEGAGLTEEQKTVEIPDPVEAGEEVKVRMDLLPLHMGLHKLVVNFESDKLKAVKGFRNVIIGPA

[4] = target: T2, human transglutaminase type 2 (TG2); experiment: SPR (Biacore T200), antibody captured on anti-human IgG1 Fc chip, human TG2 injected; Ca2+ condition not marked in this row
Description: (§1) The method employed to determine the affinity of the anti-TG2 antibodies involved the capture of the chimeric or humanised antibodies on a MAH coated CM5 chip, followed by the injection of a series of TG2 samples in running buffer. The running buffer was 1× HBS-P+ containing 1 mM CaCl₂, or 1×HBS-EP+ for calcium-free experiments. Antibody capture was carried out for a contact time of 120 seconds at a flow rate of 10 μl/min resulting in the capture of approximately 40-80 RU. TG2 was injected over the immobilised antibody at concentrations ranging from 25 nM to 400 nM with a contact time up to 600 seconds at a flow rate of 30 μl/min. Dissociation of TG2 was typically measured for up to 5400 seconds (1.5 hours). Regeneration of the chip was then performed using 3 M MgCl₂, for a contact time of 60 seconds at a flow rate of […], followed by a 300s stabilisation period before the next sample. For each of human and cynomolgus monkey TG2, at least 5 injections at a variety of concentrations were performed in at least two separate experiments.
(§2) Kinetic data were exported from the Biacore T200 Evaluation Software and analysed using GraphPad Prism, where the association phases and dissociation phases were analysed separately using a one phase association model and one-phase exponential decay model respectively. Association rates (kₒₙ) were calculated for each curve individually, and dissociation rates (koff) values from the long dissociation phase data collected. Where koff values were calculated to be <1×10⁻⁵ s⁻¹, values were set at 1×10⁻⁵ for analysis, as rates slower than this could not be estimated accurately. Values for kₒₙ and koff are presented in the tables below as the mean of the individual calculated values for each antibody for each TG2 species from multiple concentrations +/−1 standard deviation. KD values are calculated as mean koff/mean kₒₙ.

[5] = target: T3, cynomolgus monkey TG2 (cynomolgus monkey, UniProt A0A2K5VXI8 2-687); experiment: SPR (Biacore T200), antibody captured on anti-human IgG1 Fc chip, cynomolgus TG2 injected; Ca2+ condition not marked in this row
T3 construct: Recombinant, from Trenzyme; also called cynomogulus monkey TG2; cyano TG2
T3 sequence: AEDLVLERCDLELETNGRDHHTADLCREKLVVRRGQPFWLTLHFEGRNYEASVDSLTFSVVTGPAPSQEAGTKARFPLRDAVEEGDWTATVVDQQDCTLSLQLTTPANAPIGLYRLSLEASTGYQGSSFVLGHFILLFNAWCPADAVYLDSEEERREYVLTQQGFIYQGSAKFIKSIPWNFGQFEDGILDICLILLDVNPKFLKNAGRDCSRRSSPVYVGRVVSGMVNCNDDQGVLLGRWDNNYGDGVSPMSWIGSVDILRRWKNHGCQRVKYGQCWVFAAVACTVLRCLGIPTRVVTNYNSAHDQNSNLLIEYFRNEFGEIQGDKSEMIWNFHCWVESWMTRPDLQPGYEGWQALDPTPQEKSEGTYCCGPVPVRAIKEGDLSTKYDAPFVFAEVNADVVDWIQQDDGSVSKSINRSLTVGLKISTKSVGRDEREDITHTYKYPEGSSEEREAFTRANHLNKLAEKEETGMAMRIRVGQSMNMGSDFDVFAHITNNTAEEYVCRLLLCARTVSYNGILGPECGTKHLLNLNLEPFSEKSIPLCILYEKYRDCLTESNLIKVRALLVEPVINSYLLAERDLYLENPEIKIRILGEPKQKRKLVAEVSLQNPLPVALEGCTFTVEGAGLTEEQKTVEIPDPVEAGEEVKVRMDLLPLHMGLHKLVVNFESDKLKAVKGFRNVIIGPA
Description: as §1, §2

[6] = target: T2, human transglutaminase type 2 (TG2); experiment: SPR (Biacore T200), antibody captured on anti-human IgG1 Fc chip, human TG2 injected; +Ca2+
Description: (§3) FIG. 45: Human TG2 binding to cAB003 immobilised antibody by Biacore. The association phases of human TG2 injections over the cAB003-coated biosensor at 25, 50, 100 and 200 nM, including in duplicate at 50 nM, are shown on the left. From the same experiment, two long dissociation phases were collected, as shown on the right.
as §1, with “For each of human and cynomolgus monkey TG2, at least 5 injections at a variety of concentrations were performed in at least two separate experiments.” left out
as §2

[7] = target: T3, cynomolgus monkey TG2; experiment: SPR (Biacore T200), antibody captured on anti-human IgG1 Fc chip, cynomolgus TG2 injected; +Ca2+
Description: as §1, §2

[8] = target: T2, human transglutaminase type 2 (TG2); experiment: SPR (Biacore T200), antibody captured on anti-human IgG1 Fc chip, human TG2 injected; -Ca2+
Description: as §3
as §1, with “For each of human and cynomolgus monkey TG2, at least 5 injections at a variety of concentrations were performed in at least two separate experiments.” left out
as §2

[9] = target: T3, cynomolgus monkey TG2; experiment: SPR (Biacore T200), antibody captured on anti-human IgG1 Fc chip, cynomolgus TG2 injected; -Ca2+
Description: as §1, §2

B1: DH2 murine monoclonal anti-TG2 antibody (antibody, V domains shown)
VH: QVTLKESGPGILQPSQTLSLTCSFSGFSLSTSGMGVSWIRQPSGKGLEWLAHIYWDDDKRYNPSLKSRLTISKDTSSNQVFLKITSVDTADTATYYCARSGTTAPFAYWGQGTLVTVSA
VL: QIVLTQSPAIMSASPGEKVTMTCSASSSVSYMYWYQQKPGSSPRLLIYDTSNLASGVPVRFSGSGSGTSYSLTISRMEAEDAATFYCQQWSSSPLTFGAGTKLELK
**Q.** With B1 as the binder, how does the “IC50, 3H-putrescine incorporation TG activity assay” value [1] read?
**A.** 0.000223 mg/ml of IgG (amount required to inhibit 1 ng of TG2)

B2: DD9 murine monoclonal anti-TG2 antibody (antibody, V domains shown)
VH: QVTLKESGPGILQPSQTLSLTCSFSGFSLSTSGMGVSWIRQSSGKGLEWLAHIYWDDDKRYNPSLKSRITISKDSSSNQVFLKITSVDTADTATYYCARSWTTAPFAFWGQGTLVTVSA
VL: QIVLTQSPAIMSASPGEKVTMTCSASSSVDYMYWYQQKPGSSPRLLIYDTSNLASGVPVRFSGSGSGTSYSLTISRMGAEDAATYYCQQWNSSPLTFGAGTKLELK
notes: Mouse IgG from hybridoma (gamma-2a primer MHCG2A, kappa); also called mDD9001
**Q.** Does B2 bind [2]?
**A.** binds

B3: hBB001AA humanised BB7 antibody (BB7 RHA with BB7 RKA) (antibody, V domains shown)
VH: EVQLLESGGGLVQPGGSLRLSCAASGIIFSSSAMSWVRQAPGKGLEWVATISSGGRSTYYPDSVKGRFTVSRDSSKNTLYLQMNSLRAEDTAVYYCAKLISPYWGQGTLVTVSS
VL: DIKMTQSPSSLSASVGDRVTITCKASQDINSYLTWFQQKPGKAPKTLIYLTNRLMDGVPSRFSGSGSGQEFLLTISSLQPEDFATYYCLQYVDFPYTFGQGTKVEIK
notes: The name AA is read as heavy version RHA + kappa version RKA; also called hBB01AA
**Q.** Which results are given for B3?
**A.** IC50, inhibition of extracellular TG2 activity of HK2 cells (biotin cadaverine incorporation into fibronectin) [3]: 19800 pM; kon [4]: 270000 M⁻¹ s⁻¹; Kd [5]: < 30 pM; koff [5]: < 1e-05 s⁻¹; kon [5]: 300000 M⁻¹ s⁻¹

B4: hBB001BB humanised BB7 antibody (BB7 RHB with BB7 RKB) (antibody, V domains shown)
VH: EVQLLESGGGLVQPGGSLRLSCAASGFTFSSSAMSWVRQAPGKGLEWVSTISSGGRSTYYPDSVKGRFTISRDNSKNTLYLQMNSLRAEDTAVYYCAKLISPYWGQGTLVTVSS
VL: DIQMTQSPSSLSASVGDRVTITCKASQDINSYLTWFQQKPGKAPKSLIYLTNRLMDGVPSRFSGSGSGTDFFLTISSLQPEDFATYYCLQYVDFPYTFGQGTKVEIK
notes: The name BB is read as heavy version RHB + kappa version RKB
**Q.** Which results are given for B4?
**A.** IC50, inhibition of extracellular TG2 activity of HK2 cells (biotin cadaverine incorporation into fibronectin) [3]: 4900 pM; Kd [4]: < 40 pM; koff [4]: < 1e-05 s⁻¹; kon [4]: 240000 M⁻¹ s⁻¹; Kd [5]: 140 pM; koff [5]: 3.7e-05 s⁻¹; kon [5]: 270000 M⁻¹ s⁻¹

B5: hAB004 (hAB001AE) humanised AB1 antibody, heavy chain version RHA with light chain version RKE (antibody, V domains shown)
VH: EVQLLESGGGLVQPGGSLRLSCAASGFTFSSSAMSWVRQAPGKGLEWVSTISVGGGKTYYPDSVKGRFTISRDNSKNTLYLQMNSLRAEDTAVYYCAKLISLYWGQGTLVTVSS
VL: EIVLTQSPSSLSASVGDRVTITCKASQDINSYLTWYQQKPGKAPKLLIYRTNRLFDGVPSRFSGSGSGTDFFFTISSLQPEDFGTYYCLQYDDFPYTFGGGTKLEIK
notes: Captured by anti-human IgG1 Fc in SPR
**Q.** B5 was tested. Which Kd [5] did it give?
**A.** 11 pM

B6: cAB003 chimeric anti-TG2 antibody (murine AB1 variable regions, human IgG1 and human kappa) (antibody, V domains shown)
VH: EVQLVESGGGLVKPGGSLKLSCAASGFTLSSSAMSWVRQTPDRRLEWVATISVGGGKTYYPDSVKGRFTISRDNAKNTLYLQMNSLRSEDTAMYYCAKLISLYWGQGTTLTVSS
VL: DIKMTQSPSSMYASLGERVTITCKASQDINSYLTWFQQKPGKSPKTLIYRTNRLFDGVPSRFSGSGSGQDFFLTISSLEYEDMGIYYCLQYDDFPYTFGGGTKLEIK
notes: The versions differ only in the first 7 residues; also called chimeric AB1
**Q.** B6 was tested. Which Kd [6] did it give?
**A.** < 60 pM

**Q.** What about the koff [6] of the same binder?
**A.** < 1e-05 s⁻¹

**Q.** And the kon [6]?
**A.** 170000 M⁻¹ s⁻¹

**Q.** What about the Kd [7] of the same binder?
**A.** 50 pM

**Q.** And the koff [7]?
**A.** 1.2e-05 s⁻¹

**Q.** What about the kon [7] of the same binder?
**A.** 240000 M⁻¹ s⁻¹

**Q.** What about the Kd [8] of the same binder?
**A.** < 100 pM

**Q.** What about the koff [8] of the same binder?
**A.** < 1e-05 s⁻¹

**Q.** And the kon [8]?
**A.** 86000 M⁻¹ s⁻¹

**Q.** And the Kd [9]?
**A.** 93 pM

**Q.** What about the koff [9] of the same binder?
**A.** 1.3e-05 s⁻¹

**Q.** What about the kon [9] of the same binder?
**A.** 140000 M⁻¹ s⁻¹

B7: BB7 murine monoclonal anti-TG2 antibody (antibody, V domains shown)
VH: AVQLVESGGGLVKPGGSLKLSCAASGIIFSSSAMSWVRQTPEKRLEWVATISSGGRSTYYPDSVKGRFTVSRDSAKNTLYLQMDSLRSEDTAIYYCAKLISPYWGQGTTLTVSS
VL: AIKMTQSPSSMYASLGERVIITCKASQDINSYLTWFQQKPGKSPKTLIYLTNRLMDGVPSRFSGSGSGQEFLLTISGLEHEDMGIYYCLQYVDFPYTFGGGTKLEIK
notes: Mouse IgG from hybridoma (gamma-1 primer MHCG1, kappa); also called mBB001
**Q.** Does B7 bind [2]?
**A.** binds
